Experimental data as given in paper PMC8440430 (Current biology : CB, 2021).
Values belong to the binder of their own block, whether it stands above or below them.

Key:
His6-MAD2 = His6-MAD2 (human, UniProt Q13257 1-205); experiment: pull-down
[1] = target: FLAG-RIT1 protein (full-length recombinant RIT1) (human, UniProt Q92963 1-219); experiment: pull-down
[2] = target: MAD2 WT (recombinant, TEV-cleaved) (human, UniProt Q13257 1-205); experiment: SEC
His6-RIT1 = His6-RIT1 (human, UniProt Q92963 1-219); experiment: pull-down
Chain of His6-RIT1 (Q92963 whole entry): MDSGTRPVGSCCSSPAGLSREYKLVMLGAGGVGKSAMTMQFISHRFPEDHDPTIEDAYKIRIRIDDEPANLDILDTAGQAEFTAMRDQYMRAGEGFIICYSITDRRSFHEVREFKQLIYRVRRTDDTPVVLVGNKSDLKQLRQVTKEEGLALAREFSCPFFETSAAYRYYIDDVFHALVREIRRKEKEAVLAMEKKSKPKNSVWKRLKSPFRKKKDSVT

Chain of FLAG-RIT1 protein (full-length recombinant RIT1) (Q92963 whole entry): as above

binding result (His6-MAD2): binds
Binder: EHQKAWALNLNGFDVEEAKILRLSGKPQ (domain or fragment, UniProt Q12834 111-138, looked up) [GST-CDC20 111-138]

binding result [1]: binds
B1: GST-MAD2 Loop-less (LL) (natural protein, human)
chain: MALQLSREQGITLRGSAEIVAEFFSFGINSILYQRGIYPSETFTRVQKYGLTLLVTTDLELIKYLNNVVEQLKDWLYKCSVQKLVVVISNIESGEVLERWQFDIECDKGSGEKSQKAIQDEIRSVIRQITATVTFLPLLEVSCSFDLLIYTDKDLVVPEKWEESGPQFITNSEEVRLRSFTTTIHKVNSMVAYKIPVND

binding result [2]: binds
Binder: SVWKRLKSPFRKKKD (peptide, UniProt Q92963 202-216, looked up) [RIT1 (202-216) peptide]

binding result (His6-RIT1): binds
B2: GST-RGL3 RBD (604-703) (domain or fragment, UniProt Q3MIN7 604-703, looked up)
chain: IPLPAQQSSEARVIRVSIDNDHGNLYRSILLTSQDKAPSVVRRALQKHNVPQPWACDYQLFQVLPGDRVLLIPDNANVFYAMSPVAPRDFMLRRKEGTRN
